In paper PMC7810988, “Inositol pyrophosphates promote the interaction of SPX domains with the coiled-coil motif of PHR transcription factors to regulate plant phosphate homeostasis”:

B1: pAtSPX1 biotin (dsDNA)
DNA 1: CAGAGAAAAAAGGATATTCTAATTAGAAACCTTAAGAATATTCTTTTTAATCCC
DNA 2: GGGATTAAAAAGAATATTCTTAAGGTTTCTAATTAGAATATCCTTTTTTCTCTG
B2: IRD800-pAtSPX1 (dsDNA)
DNA 1: B1 DNA 1
DNA 2: B1 DNA 2

Experiments:
AtPHR1 MYB-CC Olig2 = AtPHR1 MYB-CC Olig2 (Arabidopsis thaliana, UniProt Q94CL7 222-358, L317N;L327N;I341N); test: GCI; 4 C, 300 mM NaCl; GCI at 4 C: AtPHR1 in 20 mM HEPES pH 7.5, 300 mM NaCl; OsPHR2 in 20 mM HEPES pH 7.9, 200 mM NaCl. EMSA: LI-COR Odyssey kit buffer without optional components, 50 nM oligo, 30 min at room temperature, 5% TBE gel in 0.5x TBE; details: protein: recombinant; tags: His6 N-terminal, TEV-cleaved; label: 5'-biotin on strand 1; blunt
AtPHR1 MYB-CC Olig1 = AtPHR1 MYB-CC Olig1 (Arabidopsis thaliana, UniProt Q94CL7 222-358, L319N;I333N;L337N); test: EMSA; indistinguishable from wild type; GCI at 4 C: AtPHR1 in 20 mM HEPES pH 7.5, 300 mM NaCl; OsPHR2 in 20 mM HEPES pH 7.9, 200 mM NaCl. EMSA: LI-COR Odyssey kit buffer without optional components, 50 nM oligo, 30 min at room temperature, 5% TBE gel in 0.5x TBE; details: protein: recombinant; tags: His6 N-terminal, TEV-cleaved; label: 5'-IRD800 on both strands; blunt
Chain of AtPHR1 MYB-CC Olig1 (Q94CL7 222-358 L319N/I333N/L337N): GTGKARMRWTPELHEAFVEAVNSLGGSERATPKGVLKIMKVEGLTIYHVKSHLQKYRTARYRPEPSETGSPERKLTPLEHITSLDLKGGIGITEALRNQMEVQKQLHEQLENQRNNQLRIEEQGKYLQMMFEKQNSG

Chain of AtPHR1 MYB-CC Olig2 (Q94CL7 222-358 L317N/L327N/I341N): as the sequence (Q94CL7 222-358 L319N/I333N/L337N) above, with L96N, N98L, L106N, N112I, N116L, I120N counted along it

Binder | binding signal (AtPHR1 MYB-CC Olig2) | binding result (AtPHR1 MYB-CC Olig1)
B1 | ~20 fold reduced affinity vs wild type | –
B2 | – | binds
